We go through one molecule from patent US20230312646A1, “ANTIBACTERIAL PEPTIDES” (priority 2020, published 2023).

Assay [1] has as its target T1, Escherichia coli sliding clamp (bacterial processivity factor, dnaN gene product) (Escherichia coli), P0A988. Description: kinITC.
Assay [2] has as its target T1, Escherichia coli sliding clamp …. Description: ITC, 25 C. A general note: In ITC the heat of successive injections is recorded.
In assay [3] the target is Acinetobacter baumannii sliding clamp (Acinetobacter baumannii). Kind of assay: ITC, 25 C.
Assay [4] has as its target T1, Escherichia coli sliding clamp …. Description: ITC, 25 C. The source holds these as a separate data set.
The target in assay [5] is T2, Pseudomonas aeruginosa sliding clamp (Pseudomonas aeruginosa), Q9I7C4.
T2 chain: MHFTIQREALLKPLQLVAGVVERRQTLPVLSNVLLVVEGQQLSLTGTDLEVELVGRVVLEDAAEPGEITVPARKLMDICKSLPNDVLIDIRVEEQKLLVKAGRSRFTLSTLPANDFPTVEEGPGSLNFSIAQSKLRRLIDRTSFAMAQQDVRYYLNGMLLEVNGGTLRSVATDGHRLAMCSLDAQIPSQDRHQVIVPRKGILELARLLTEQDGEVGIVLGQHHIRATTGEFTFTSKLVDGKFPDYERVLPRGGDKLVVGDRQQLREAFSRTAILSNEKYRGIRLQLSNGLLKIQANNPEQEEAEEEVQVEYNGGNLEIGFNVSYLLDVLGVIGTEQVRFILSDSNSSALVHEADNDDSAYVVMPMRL
Description: ITC, 25 C.

For orientation: koff means the first-order rate constant of dissociation. Read a high koff as a short-lived complex. As a reminder, the kon is a measure of how fast the partners come together. A high value points to fast association. Broadly, the Kd is a measure of binding affinity in units of concentration. Read a high Kd as a looser complex.

Where two headings read alike, the source gives them in different places. Square brackets hold non-standard residues; d marks the D form. Cha = N[C@@H](CC1CCCCC1)C(=O)O

Ac-Q[Cha]DLF-OH [Ac-Gln-Cha-Asp-Leu-Phe-OH (peptide 1)] had a koff in assay [1] of 0.0074 s⁻¹. This molecule came in with an association rate constant (kon) in assay [1] of 40000 M⁻¹ s⁻¹. Also, the Kd in assay [2] came to 194 nM; in assay [3] it was 655 nM; in assay [4] it was 170 nM; in assay [5], 600 nM. The ΔG in assay [2] was -9.2 kcal/mol.
